Test results taken from patent publication US20030216563A1 (Scripps Research, published 2003).

T1: Weel (Schizosaccharomyces pombe, UniProt P07527 1-877)
T1 construct: Endogenous protein co-purified from S. pombe cells and detected with antibodies to Weel; also called kinase Weel; native Weel protein
T1 sequence (looked up): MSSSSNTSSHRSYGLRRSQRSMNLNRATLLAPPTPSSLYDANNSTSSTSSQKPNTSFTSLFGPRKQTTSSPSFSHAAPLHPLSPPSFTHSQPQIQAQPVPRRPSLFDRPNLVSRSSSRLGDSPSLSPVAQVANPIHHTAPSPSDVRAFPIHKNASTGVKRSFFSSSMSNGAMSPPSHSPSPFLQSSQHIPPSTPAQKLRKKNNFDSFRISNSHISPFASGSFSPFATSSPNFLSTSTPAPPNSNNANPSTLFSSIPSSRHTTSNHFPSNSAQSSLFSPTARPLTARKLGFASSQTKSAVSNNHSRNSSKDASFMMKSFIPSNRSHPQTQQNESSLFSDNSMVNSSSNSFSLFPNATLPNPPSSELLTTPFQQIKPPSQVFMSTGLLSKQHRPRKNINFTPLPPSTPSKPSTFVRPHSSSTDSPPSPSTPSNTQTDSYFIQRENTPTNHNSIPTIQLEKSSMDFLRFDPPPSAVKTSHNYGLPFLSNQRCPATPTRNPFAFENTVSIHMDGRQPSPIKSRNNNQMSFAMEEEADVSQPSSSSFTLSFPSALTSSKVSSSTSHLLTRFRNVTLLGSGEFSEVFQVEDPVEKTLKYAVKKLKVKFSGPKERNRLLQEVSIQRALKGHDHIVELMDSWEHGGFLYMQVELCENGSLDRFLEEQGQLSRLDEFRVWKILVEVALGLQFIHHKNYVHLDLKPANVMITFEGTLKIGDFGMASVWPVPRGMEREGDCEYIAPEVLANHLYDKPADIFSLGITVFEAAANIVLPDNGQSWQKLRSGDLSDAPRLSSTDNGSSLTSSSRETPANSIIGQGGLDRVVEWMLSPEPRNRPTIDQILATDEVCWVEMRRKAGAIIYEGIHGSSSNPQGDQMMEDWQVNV

T2: Cdc25 (Schizosaccharomyces pombe, UniProt P06652 1-596)
T2 construct: Endogenous protein co-purified from S. pombe cells and detected with antibodies to Cdc25
T2 sequence (looked up): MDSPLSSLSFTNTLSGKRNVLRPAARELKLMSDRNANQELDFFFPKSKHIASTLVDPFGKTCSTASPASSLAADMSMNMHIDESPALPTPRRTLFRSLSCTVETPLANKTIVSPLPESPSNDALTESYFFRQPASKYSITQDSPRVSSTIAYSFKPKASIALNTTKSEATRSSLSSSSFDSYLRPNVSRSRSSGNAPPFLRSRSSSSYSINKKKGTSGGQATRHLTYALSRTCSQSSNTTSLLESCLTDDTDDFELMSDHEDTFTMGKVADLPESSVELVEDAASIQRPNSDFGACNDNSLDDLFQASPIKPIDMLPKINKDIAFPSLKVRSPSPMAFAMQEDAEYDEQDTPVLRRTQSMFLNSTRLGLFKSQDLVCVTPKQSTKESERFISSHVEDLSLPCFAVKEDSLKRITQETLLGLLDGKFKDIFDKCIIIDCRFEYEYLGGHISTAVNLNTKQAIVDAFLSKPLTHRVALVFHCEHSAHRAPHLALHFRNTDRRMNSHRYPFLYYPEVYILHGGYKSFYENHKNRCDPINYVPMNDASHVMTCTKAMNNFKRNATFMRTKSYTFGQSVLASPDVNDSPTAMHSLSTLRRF


Columns and labels:
[1] = molecular target: T1, Weel; assay: GSH-Sepharose purification of GST fusion expressed in S. pombe, immunoblot with antibodies to Weel
Procedure: (§1) FIG. 2D is a photograph of an analysis of proteins which illustrates that Weel interacts with GST:cds1⁺ but not GST:Chk1 in vivo. Strains carrying integrated nmt1:GST:chk1⁺ or nmt1:GST:cds1⁺ constructs were grown in minimal medium (EMM2) without thiamine at 30° C. for 16 hr to induce expression of GST fusion proteins. Cells were lysed and GST fusion proteins purified with GSH-Sepharose. After extensive washing, samples were resolved by 10% SDS-polyacrylamide gel electrophoresis and subjected to immunoblotting with antibodies to Weel, Cdc25 and GST. A ˜110 kDa protein corresponding to Weel was detected in the GST:Cds1 sample, whereas a ˜80 kDa protein corresponding to Cdc25 was detected in the GST:Chk1 sample. The ˜110 kDa protein was not detected in samples prepared from Δweel cells. GST:Cds1 and GST:Chk1 migrate at positions corresponding to ˜82 and ˜80 kDa, respectively.
(§2) As a control, a strain that expressed GST:Chk1 was used. The GST fusion proteins were purified with GSH-Sepharose and analyzed by immunoblotting. Cdc25 (but not Weel) associated with GST:Chk1, whereas Weel (but not Cdc25) associated with GST:Cds1 (FIG. 2D).

[2] = molecular target: T2, Cdc25; assay: GSH-Sepharose purification of GST fusion expressed in S. pombe, immunoblot
Procedure: as §1, §2

[3] = molecular target: T1, Weel; assay: as above
Procedure: as §1, §2

[4] = molecular target: T2, Cdc25; assay: GSH-Sepharose purification of GST fusion expressed in S. pombe, immunoblot with antibodies to Cdc25
Procedure: as §1, §2

Binder	binding result [1]	binding result [2]	binding result [3]	binding result [4]
GST:Chk1 (other, Schizosaccharomyces pombe, UniProt P34208 1-496, looked up, Expressed in S. pombe from the integrated nmt1:GST:chk1+ construct; Migrates at ~80 kDa; not shown: glutathione-S-transferase) MAQKLDNFPYHIGREIGTGAFASVRLCYDDNAKIYAVKFVNKKHATSCMNAGVWARRMASEIQLHKLCNGHKNIIHFYNTAENPQWRWVVLEFAQGGDLFDKIEPDVGIDEDVAQFYFAQLMEGISFMHSKGVAHRDLKPENILLDYNGNLKISDFGFASLFSYKGKSRLLNSPVGSPPYAAPEITQQYDGSKVDVWSCGIILFALLLGNTPWDEAISNTGDYLLYKKQCERPSYHPWNLLSPGAYSIITGMLRSDPFKRYSVKHVVQHPWLTSSTPFRTKNGNCADPVALASRLMLKLRIDLDKPRLASSRASQNDSGFSMTQPAFKKNDQKELDRVEVYGALSQPVQLNKNIDVTEILEKDPSLSQFCENEGFIKRLAKKAKNFYEICPPERLTRFYSRASRETIIDHLYDSLRLLAISVTMKYVRNQTILYVNLHDKRKCLLQGVIELTNLGHNLELINFIKRNGDPLEWRKFFKNVVSSIGKPIVLTDVSQN	no binding	binds		
GST:Cds1 (other, Schizosaccharomyces pombe, UniProt Q09170 1-460, looked up, Expressed in S. pombe from the integrated nmt1:GST:cds1+ construct; Migrates at ~82 kDa; not shown: glutathione-S-transferase) MEEPEEATQATQEAPLHVSQNIAKQVVNNENVFMKLVMTRMLDGKTEVIPLTTDVHNGFWRFGRHKSCEVVLNGPRVSNFHFEIYQGHRNDSDESENVVFLHDHSSNGTFLNFERLAKNSRTILSNGDEIRIGLGVPKDEISFLCQVPVKHSRDSQKNMIKSENSHYEIIRTLGSGTFAVVKLAVEVNSGKWYAIKIINKRKILLTSSEKRATEMFQREIDILKSLHHPGVVQCHEIFENDDELFIVMEYVEGGDLMDFLIANGSIDEQDCKPLLKQLLETLLHLHKQGVTHRDIKPENILITNDFHLKISDFGLAKVIHGTGTFLETFCGTMGYLAPEVLKSKNVNLDGGYDDKVDIWSLGCVLYVMLTASIPFASSSQAKCIELISKGAYPIEPLLENEISEEGIDLINRMLEINPEKRISESEALQHPWFYTVSTHEHRTPPSSSEHEATEQLNSSS			binds	no binding
